# T1: GST-MOB1 (GST fusion of MOB1, from pGEX-HA-MOB1), Q9H8S9
# T1 chain: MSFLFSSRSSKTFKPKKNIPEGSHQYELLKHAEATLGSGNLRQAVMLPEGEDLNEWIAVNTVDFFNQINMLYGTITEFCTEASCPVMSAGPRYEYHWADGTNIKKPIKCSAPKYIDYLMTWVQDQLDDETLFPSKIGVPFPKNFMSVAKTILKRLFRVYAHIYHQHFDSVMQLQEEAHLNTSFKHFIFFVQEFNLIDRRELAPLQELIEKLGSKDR
# B1: active recombinant human FAK (catalytic domain, FAK-C) (protein)
# chain: ETDDYAEIIDEEDTYTMPSTRDYEIQRERIELGRCIGEGQFGDVHQGIYMSPENPALAVAIKTCKNCTSDSVREKFLQEALTMRQFDHPHIVKLIGVITENPVWIIMELCTLGELRSFLQVRKYSLDLASLILYAYQLSTALAYLESKRFVHRDIAARNVLVSSNDCVKLGDFGLSRYMEDSTYYKASKGKLPIKWMAPESINFRRFTSASDVWMFGVCMWEILMHGVKPFQGVKNNDVIGRIENGERLPMPPNCPPTLYSLMTKCWAYDPSRRPRFTELKAQLSTILEEEKAQQEERMRMESRRQ
# Legend:
# [1] = target: YAP1 Recombinant Protein (Abnova H00010413-P01), P46937
# [2] = target: T1, GST-MOB1 (GST fusion of MOB1, from …)
protein,measurement,setting,value
B1,YAP Y357 phosphorylation in an in vitro kinase reaction (immunoblot),[1],FAK was able to phosphorylate YAP at Y357 in vitro
same,Y26 phosphorylation of GST-MOB1 in an in vitro kinase reaction (immunoblot),[2],FAK was able to directly phosphorylate MOB1 on its Y26 by in vitro kinase reaction using purified recombinant proteins

# Reference: patent US20200323863
